According to the nanobody polyreactivity screen of Harvey et al. (2022):

Assay: yeast display, Sf9 membrane polyspecificity reagent, FACS + sequencing; frameworks hold sequencing errors
Outline: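 Sorting gates, low and high (top ~1%), were placed on anti-HA fluorescence to track expression and on streptavidin fluorescence to track reagent binding. A clone's polyreactivity label is taken from the gate it came out of. The reagent was 10% biotinylated, detergent-solubilized Sf9 membrane, applied for 1 hour at 4 °C to galactose-induced yeast display cells.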

Sequence	polyreactivity (PSR sort gate)
QVQLVESGAGLVQAGGSLRLSFAASGRTFVYNAMAWYRQAPGKERELVAAIDGGGDRTYYADSVKGRFTISRDNAKNTVYLQMNSLKPEDTAVYYCARDPGDTYYYSYPEGDYWGQGTLVTVSS	low polyreactivity
QVQLVESGAGLVQAGGSLRLSSAASGGTFGHYVMGWYRPAPGKERELVAVISRRGGSTYYADSVKGRFTISRDTAKNTVYLQMNSLKPEDTAVYYCAAYQDVSYFKYSPYDYWGQGTQVTVSS	high polyreactivity
QVQLVESGAGLVQAGGSLRLTCAASGRIFVINAMGWLRQAPGKETELVAPITGGGSTNYADSVKGRFTISRDNAKNTVYLQMNSLKPEDTAVYYCAADYRPVRRFYYSRYDYWGQGTQVTVSS	low polyreactivity
QVQLVESGAGLVQAGGSLRVSCAASGLIFAWYAMGWYRQAPGKERELVATIDVSGGTYYADSVKGRFTISRDNAQNTVYLQMNSLNPEDTAVYYCAAGVTYWYDAPEYYYWGQVTQVTVSS	high polyreactivity
QVQLVESGAGLVQAGGTLRLSCAASGFTCRYYAMGWSRQAPGKERELVASISWSGDSTYYADSVKGRFTISRDNAKNTGYLQMNSLKPEETAFYYCARQTGFPRSYIYRMYYWGQGTQVTVSS	high polyreactivity
QVQLVESGAGLVQAGVSLGLSCAASGFTFVRDAMGWYRQAPGKEREFVASISARGGNTFYADSVQGRFSISRDNAKNTVYLKMNSLKPEDTAVYYCAKRGPYGTGYGYWGQGTQVTVSS	high polyreactivity
QVQLVESGAGLVQARGSLRLSCAASGFTISYYAMGWYRQAPVKERELVAAITSGGSTYYADYVKGRFTISRDNAKNTVYVQMNSLKPEDTAVYYCIADGWYYPTDDYWGQGSQVTVSS	low polyreactivity
QVQLVESGAGLVQEGGSLRLSCAASGFTFFGYAMGWYRQEPGKERELVATISDTGGSTYADSVKGRFTISRDTAKNTVYLQMNCVKPEDTAVYYCNARSVFYSMDYWGQGTQVTVSS	low polyreactivity
QVQLVESGAGLVQEGGSLRLSCAASGSIFVGNAMGWYRQAPGKERELVATISWSGGSTYYADSVKGRFTISRDNAKNTVYLQMNSLKPEDTAVYYCAKTPYRRYRYGGYTYRTYDYWGQGTQVTVSS	low polyreactivity
QVQLVESGAGLVRAGGSLRISCAASGNIYGANTMGWYRQAPGKERELDATITWSGGDTYYADSVKGRFTISRDNAKNSVYLQMNSLKPEDTAVYYCATRRFRYRPPFKYDYWVQGTQVTVSS	low polyreactivity
QVQLVESGARLVPAGGTLRLSFADYGFNFGQYAMAWYRQAPGKERELVAAISWSGGSTYYAESVKGRFTISRDNAKNTVYLQMNSLKPEDTAVYYCGEELGDYWGQGTQVTVSS	high polyreactivity
QVQLVESGARLVQEGGSLRLSCAASGSIFGRYVMGGYRQEPGKEREFVAAITYSGSSTYYADSVKGRFTISRDNAKNTVYLQMNSLKPEDSAVYYCNTYPGSFYWMGYWGQGTQVTVSS	high polyreactivity
QVQLVESGCGLVHAGGSLRLSCAASGRILRYYAMGWYGQAPGKDRELVAVITSSDGSTYYADSVKGRITISRDNAMNTVYLQMNSLKPEDTAVYYCAAAPLWRLASWWDPYRRYDYWGQGTQVTVSS	low polyreactivity
QVQLVESGCGLVHAGGSLRLSCAASGSNFGDYAMGCYRQAPGKERELVAAITKSGGTTYYADSVKGRFTISRDNAKNTVYLQMNSLKPEDTSFYYCAADPIRYRSRHKYGYWGQGTQVTVSS	low polyreactivity
QVQLVESGEGLVQAGGSLRLSCAASGRIFYSNDMGWYRQAPGKEREFVAAITDSGGSTYYADSVKGRFTISRDNAKNTVYLQMNSLKPEDTAGYYCAKRQYQSYIRGPYYYWGQGTQVNVSS	low polyreactivity
QVQLVESGGALDQAGGRLPLSSAASGSIFRINAMRLYRQAPGKVRELVAAISWSGGSTYYADSVKGRFTISRDNAKNTVYLQMNSLKQEDTAVYYCADVVSKSSFDYWVQGTQVTVSS	low polyreactivity
QVQLVESGGALVHAGGSLRLSCAASGSILKTYAMGWYIQAPGKEREFVAAMSSGGSTYYADSVKGRFTISRDNAKNTVYLQMNSLKPEDTAVYYCAADPWGDFVSFASYYYWGQGTQVTVSS	low polyreactivity
QVQLVESGGALVQAAGSLRLICAASVIISGCNGMGWYRQAPGKERELVASISDSGSSTYYADSVKGRFTISRDNAKNTVYLQMNSLKPEDTAVYYCATDLLASRYGYWGQGTQVTVSS	low polyreactivity
QVQLVESGGALVQAGGRLLLSCAASGRTFQGYVMGWYRQAPGKERELVAAISRGTSTYYADSVKGRFTISRDNAKNTVYLQMNSLKPEDTAGYYCAADGERRHYWGQGTQVTVSS	low polyreactivity
QVQLVESGGALVQAGGSIRLSCAASGFISRKNALGWYSQAPGKERELVATITKSGDTTYYADSVKGRFTISRDNAKNTVYLQMNSLKPEETAVYYCAAPLYYIGSWDYYVRYIYDYWGQGTQVTVSS	low polyreactivity
QVQLVESGGALVQAGGSLRISCAASGSIFPQNAMGWYRQAPEKERELVAAITTGGGRTYYADSVKGRFTISRDNVKNTVYLQMNSLKPEDTAVYYCYIRWPFRHYGSWGLGTQVTVSS	high polyreactivity

Sequence	polyreactivity (PSR sort gate)
QVQLVESGGALVQAGGSLRLRCAASGTFFIYAMGWYRQAPGKEREFVATISTGGSTNYADSVKGRFTISRDNAKNTVYLQMNSLKPADTAVYYCAAEWLYPHDGGYRRPMDYWGQGTKVTVSS	low polyreactivity
QVQLVESGGALVQAGGSLRLSCAACGRTFWYNAMGWYRQAPGKERELVAAITRGGGRTYYADSVKGRFTISRDNAKNTVYLQMNSLKPEDTAVYYCAADSYYDMNYWGQGTQVTVSS	low polyreactivity
QVQLVESGGALVQAGGSLRLSCAASGFFIFTYAMGWYRQAPGKERELVAAISSRGGSTYYADSVKGRFTISRDNAKNTVYLQMNRLKPEDTAVYYCAAQAYGRYPYGYWGHGTQVTVSS	high polyreactivity
QVQLVESGGALVQAGGSLRLSCAASGFILNKNVMGWYRQPPRKERELVAAITGSGGRTYYADSVKGRFTISRDNAKNTVYLQMNCLKPEDTAVFYCNALPGTQYNYWGQGTQVTVSS	high polyreactivity
QVQLVESGGALVQAGGSLRLSCAASGFIVDAYAMGWYRQAPGKERELVAALTRGNTYYADSVKGRFTISRDNAKNTVYLQMTSLKPEDTGVSCCAARSWQSYRSQVTHSSTLDYWGQGTQVTVSS	low polyreactivity
QVQLVESGGALVQAGGSLRLSCAASGFTFYKNAMGWYRQAPGKERELVAAISRSAGSTYYADSVKGRFTISRDNAKNTVYFQMNSLKPEDTAVYYCNAVSDVKRYDYWGQGTQVTVSS	high polyreactivity
QVQLVESGGALVQAGGSLRLSCAASGIIFGGYALGWYRQEPGKERELVAAISCGGSTNYADSVKGRFTISRDNAKNTVYLQMNSLKPEDTSVYYCAADSASSYSYNYWGQGSQVTVSS	low polyreactivity
QVQLVESGGALVQAGGSLRLSCAASGITFEVYAMGLYRQAPGKAREFVAAITGSGSRTYYADSVKGRFTISRDNAKNTVYLQMNSLKPEDTAVYYCAVKGFSTRSYREFDYWAQGTQVTVSS	low polyreactivity
QVQLVESGGALVQAGGSLRLSCAASGLTFRDNAIGWYRKAPGKERELVDAISTNGGSTYYADSVKGRFTISRDNAKNTVYLQMYSLKPEVTAVYYCAADYDYQYRYYYWGQGTQVTVTS	low polyreactivity
QVQLVESGGALVQAGGSLRLSCAASGPIFGVYAMGWYRQAPGKERELVAAITYTGASTYYADSVKGRFTISRDNAKNTVYLQMNSLKPEDTAVYYCAGRLWRRSRFDYWGQGTQVTVSS	high polyreactivity
QVQLVESGGALVQAGGSLRLSCAASGRTFVSYVMGWYRQAPGKEREMVAAISGNGGRTYYADSVKGRFTISRDYAKKTVYLQMNSLKPEDTAVFYCAAELFVSYFDVLMYYWGQGTQVTVSS	high polyreactivity
QVQLVESGGALVQAGGSLRLSCAASGRTFWRNTMGWYRQAPGKEREFVAAITFSGVRTYYADSVKGRFTISRDNAKNTVYLQMNSLKPQDTAVYYCAKSRQYIGGFDYWGQGTQVTVSS	high polyreactivity
QVQLVESGGALVQAGGSLRLSCAASGRTINYYAMGWYRQAPGKERELVAAITWSGSSTYYADSVKGRFTISRDNAKYTVYLQMNSLKPEDTAVYYCNKASYTGYRSKRFYYWGQGTQVTVSS	high polyreactivity
QVQLVESGGALVQAGGSLRLSCAASGRTLESNAMGWYRQTPGKERELVAAISTIGGTYYADSVKGRFTLSRDNAKNTVYLQMNSLKPEDTAVYYCAKVWYDHSYIPIYDSWGQGTQVTVSS	low polyreactivity
QVQLVESGGALVQAGGSLRLSCAASGSIFRYNAMGWYRQAPGKEREFVAIISYSGVRTYYADSVKGRFTISRDNAKNTVYLQMNSLKPADTAVYYCAADFKQKGHRTRTTYWGQGTQVTVSS	high polyreactivity
QVQLVESGGALVQAGGSLRLSCAASGSIFVSYAKGWSRPAPGKERELLATITTSTGSTYADSVKGRFTISRDNAKNTVYLQMNSLKPEDTAVYYCAARYQPWLKYDFDSWGQGTQVTVSS	low polyreactivity
QVQLVESGGALVQAGGSLRLSCAASGSILDPKAMGWYRQAPGKERELVASISRGDNTYYADSVKGRFTISRDNAKNTVYLQMNSLKPEDSAVYYCAADYSWVVWHDYWGQGTQVTVSS	low polyreactivity
QVQLVESGGALVQAGGSLRLSCAASGSTFAYYAMGWSRPAPGKERELVAAITRGGRTNYADSVKGRFTISRDNAKNTVYVQMNSLNREDTAVYYCAARSGRSWLTCSYDYWGQGTQVTVSS	high polyreactivity
QVQLVESGGALVQAGGSLRLSCAASGSTFLNYAMRGYRQATGKARELVAGINSGGSTNYADSVKGRFTISRDNAKNTVYLQMNSLKPEDTAVYYCAGDRVGNEYDYWGQGTQVTVSS	low polyreactivity
QVQLVESGGALVQAGGSLRLSCAASGSTLAYNAMGWYRQAPGKERELVAGIRGSGGSTYYADSVKGRFTISRDNAKNTVYLQMNSLKPEDTAVYYCNADSSVGHPPDGEYWGQGTQVTVSS	low polyreactivity
